How the values were obtained:
[1] = tested on: (Na,K)ATPase large cytoplasmic loop (CD3); test: Yeast 2-hybrid analysis of HRF binding to (Na,K)ATPase large cytoplasmic loop; set-up: species or system rat; details: CD3 of (Na,K)ATPase α1 and α2 subunits as bait
From the text: The total cytoplasmic RNA was extracted from rat skeletal muscle and then, cDNA library for yeast 2-hybrid analysis was constructed by using pJG4-5 vector. CD3 region of (Na,K)ATPase α2 subunit was inserted to LexA DNA binding domain (pEG202 vector) and the inserts were used as bait for screening. Positive clones activating reporter gene were selected and sequence analyzed by sequencing, restriction mapping and BLAST search. Among those clones, one clone had the completely identical sequence with HRF.
CD3 regions of (Na,K)ATPase α1 and 2 subunits were inserted to pEG202 vector and then, the interaction by isoforms was examined. Yeast cells containing LexAop-LEU2 and LexAop-LacZ reporter genes (EGY48/pSH18-34) were transformed with all the constructs as prepared above and then, grown in a selective medium plate.

[2] = tested on: (Na,K)ATPase large cytoplasmic loop; test: Coimmunoprecipitation in yeast cells; assay type: binding, rat
Method: In Glucosyl Ura-His-Trp- and galactosyl Ura-His-Trp-media, yeast cells transformed with the constructs prepared in Example 1 were grown, and the cells were harvested by centrifugation at 3,000×g for 5 minutes. The harvested cells were resuspended in yeast lysis buffer (YLB: 50 mM Tris pH 8.0, 5 mM MgCl2, 150 mM NaCl, 50 mM NaF, 2 mM ZnCl2, protease inhibitor cocktail) and subsequently, the suspension was added to glass beads and vortexed. Thereto was added RIPA buffer (10 mM Tris pH 8.0, 100 mM NaCl, 1 mM EDTA, 1% NP4O, 0.5% sodium deoxycholate, 0.1% SDS) and then, the whole mixture was centrifuged at 10,000×g, 4° C. for 30 minutes.
To the cell extracts as prepared above, IgG sorb (The Enzyme Center, Inc.) was added and then, the mixture was incubated at 4° C. for 30 minutes and centrifuged at 10,000×g for 5 minutes. Thereto was added affinity-purified anti-HA 12CA5 monoclonal antibodies and then, the resulting mixture was incubated for 3 hours or overnight at 4° C. 50% protein A agarose solution (Roche, USA) was added to the above immunocomplex and the whole mixture was incubated at 4° C. for 4 hours. After centrifugation for 5 seconds, the obtained pellets were washed with RIPA buffer and washing buffer (1 M NaCl, 10 mM Tris pH 8.0, 0.1% NP4O), respectively. The pellets were resuspended in 2×SDS sample buffer and then, the suspension was loaded onto SDS-PAGE gel. […]

[3] = tested on: (Na,K)ATPase large cytoplasmic loop; test: Coimmunoprecipitation in COS-7 cells; assay type: binding; details: HA-tagged HRF
Method: Subsequently, to examine such interaction in mammalian cells, COS-7 cells were grown in DMEM^+ culture (Dulbeccos modified Eagles medium containing 10% fetal bovine serum, 100 units/ml penicillin and 100 units/ml streptomycin). The cells were transfected with N-terminal HA-tagged HRF constructs inserted to pCDNAneo vector (Invitrogen). COS-7 cell extracts were immunoprecipitated according to the method of Florkiewicz, et al. (1998). To detect the interactive protein, rabbit polyclonal anti-(Na,K)ATPase antibodies were added thereto.

RBL-2H3 cells = test: Histamine release by HRF (RIA); assay type: cell-based; details: IgE-sensitized RBL-2H3 cells, 20 μg/ml recombinant HRF
Method: The full-length rat HRF sequence amplified by PCR was cloned in pRSET-A vector and then, overexpressed in E. coli. The expressed recombinant protein was purified using His-bound Ni column (Novagen) and used for stimulation of RBL-2H3 cells. RBL-2H3 cells were grown in 24-well plate at 1×10^6 cells, sensitized with rat IgE antibody (0.2 μg/ml, Serotec) for 45˜60 minutes and treated with 20 μg/ml of the recombinant HRF protein and the inhibitors as used above, respectively. The obtained sample was prepared to acylated histamine using RIA-analysis kit (Immunotech, France) and competitively bound to ^125I-acylated histamine and monoclonal antibodies. The sample was analyzed by γ-counter.

B1: HRF: recombinant full-length rat HRF overexpressed in E. coli; protein consisting of 172 amino acids (protein)
chain: MIIYRDLISHDELFSDIYKIREIADGLCLEVEGKMVSRTEGAIDDSLIGGNASAEGPEGEGTESTVVTGVDIVMNHHLQETSFTKEAYKKYIKDYMKSLKGKLEEQKPERVKPFMTGAAEQIKHILANFNNYQFFIGENMNPDGMVALLDYREDGVTPFMIFFKDGLEMEKC
modifications: left off: small tags and cut ends
notes: recombinant full-length rat HRF overexpressed in E. coli; protein consisting of 172 amino acids
[1]
  HRF binding to (Na,K)ATPase CD3 in yeast 2-hybrid: HRF receptor corresponds to large cytoplasmic loop (CD3) of (Na,K)ATPase
[2]
  interaction with (Na,K)ATPase large cytoplasmic loop, coimmunoprecipitation: interaction between HRF and (Na,K)ATPase large cytoplasmic loop could be confirmed
[3]
  interaction with (Na,K)ATPase large cytoplasmic loop, coimmunoprecipitation: interacted with (Na,K)ATPase large cytoplasmic loop
RBL-2H3 cells
  histamine release: histamine was released by HRF

Source: patent US6710165B2, “IgE-dependent histamine-releasing factor-binding peptides” (priority 2000, dated 2004)
